The text below walks through data of patent US20190359687A1 (Bayer, published 2019).

For experiment [1], the target named is T1, human glycophorin A on human red blood cells (human, UniProt P02724 20-150).
T1 construct: whole, on cells; also called human GPA; huGPA
T1 sequence (looked up): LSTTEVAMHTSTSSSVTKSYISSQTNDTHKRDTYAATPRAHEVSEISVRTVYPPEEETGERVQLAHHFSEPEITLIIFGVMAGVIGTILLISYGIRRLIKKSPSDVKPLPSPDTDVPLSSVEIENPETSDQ
The experiment in a line: partition to human RBC, human HemA plasma, 120 min.

Experiment [2] concerns the target T2, Cynomolgus monkey glycophorin A on Cynomolgus monkey red blood cells (Cynomolgus monkey).
T2 construct: whole, on cells; also called Cyno GPA; Cyno RBC
The experiment in a line: partition to Cyno RBC, human HemA plasma, 120 min.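 Note: FVIII fusion spiked at 1 IU/mL into RBC suspension at whole-blood density.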
Experimental: (§1) To evaluate partition to cynomolgus monkey or human red blood cells, whole blood was draw from Cynomolgus monkey or normal human volunteers in to anticoagulant with 4% sodium citrate (Sigma, St Louis, Mo.). The red blood cells were purified by layering the whole blood on to ficoll followed by low speed centrifugation. The supernatant containing plasma, platelets and white blood cells was discarded and the red blood cell pellet was resuspended in 10 pellet volumes of PBS (50 mM Phosphate buffer, pH7.4, 150 mM NaCl). The red blood cells were then pelleted by slow speed centrifugation and the red blood cells re-suspended in 10 volumes of PBS. This washing step was repeated 4 more times and the red blood cells finally resuspended in a volume of plasma from Hemophilia patients with less than 1% of normal levels of FVIII (GeorgeKing Bio-Medical, Overland Park, Kans.) to generate a total volume equal to the initial blood volume such that the RBC density was equal to that of normal whole blood. BDD and RBC targeted FVIII molecules were then spiked into RBC suspension in HemA plasma at 1 IU/mL, and incubated at room temperature for 2-3 hours with gentle rotation. […] An additional control was performed in which BDD or RBC targeted FVIII molecules were added at 11U/ml into the same human hemophilia A plasma and incubated for 5 minutes and 180 mins. These samples were used to determine the input FVIII activity in the presence of plasma which was used to calculate the percentage of the molecule that was bound to RBC. All plasma samples were then assayed together for FVIII activity using the Coatest SP assay (DiaPharma, Columbus, Ohio). The assay was performed following the manufacturer's instructions in a 96-well plate format. […] The plate was incubated at 37° C. for 10 minutes with shaking between each reagent addition.

In experiment [3] the target is T1, human glycophorin A on human red blood …. Kind of experiment: partition to human RBC, human HemA plasma, 1 min.
Experimental: (§2) The supernatant containing plasma, platelets and white blood cells was discarded and the red blood cell pellet was resuspended in 10 pellet volumes of PBS (50 mM Phosphate buffer, pH7.4, 150 mM NaCl). The red blood cells were then pelleted by slow speed centrifugation and the red blood cells re-suspended in 10 volumes of PBS. This washing step was repeated 4 more times and the red blood cells finally resuspended in a volume of plasma from Hemophilia patients with less than 1% of normal levels of FVIII (GeorgeKing Bio-Medical, Overland Park, Kans.) to generate a total volume equal to the initial blood volume such that the RBC density was equal to that of normal whole blood. BDD and RBC targeted FVIII molecules were then spiked into RBC suspension in HemA plasma at 1 IU/mL, and incubated at room temperature for 2-3 hours with gentle rotation. […] An additional control was performed in which BDD or RBC targeted FVIII molecules were added at 11U/ml into the same human hemophilia A plasma and incubated for 5 minutes and 180 mins. These samples were used to determine the input FVIII activity in the presence of plasma which was used to calculate the percentage of the molecule that was bound to RBC. All plasma samples were then assayed together for FVIII activity using the Coatest SP assay (DiaPharma, Columbus, Ohio). The assay was performed following the manufacturer's instructions in a 96-well plate format. […] The plate was incubated at 37° C. for 10 minutes with shaking between each reagent addition. […] The amount of FVIII activity in the plasma reflects the amount of unbound FVIII. The FVIII activity of the same molecule spiked in to Hemophilia A plasma alone (no RBC) and incubated for 5 minutes was normalized to 100%.
Experiment [4] shares this target. Kind of experiment: partition to human RBC, human HemA plasma, 120 min. This is another data set of the same source.
Experimental: as §2
For experiment [5], the target named is T2, Cynomolgus monkey glycophorin A on …. The experiment in a line: partition to Cyno RBC, human HemA plasma, 5 min.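 Note: FVIII fusion spiked at 1 IU/mL into RBC suspension at whole-blood density.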
Experimental: as §1
Experiment [6] has as its target T1, human glycophorin A on human red blood …. The experiment in a line: partition to human RBC, human HemA plasma, 60 min.
Experiment [7] shares this target. The experiment in a line: partition to human RBC, human HemA plasma, 5 min.
The target is the same in experiment [8]. The experiment in a line: partition to human RBC, human HemA plasma, 30 min.
Experimental: as §2
In experiment [9] the target is T2, Cynomolgus monkey glycophorin A on …. The experiment in a line: partition to Cyno RBC, human HemA plasma, 15 min.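 Note: FVIII fusion spiked at 1 IU/mL into RBC suspension at whole-blood density.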
Experimental: as §1
For experiment [10], the target named is T1, human glycophorin A on human red blood …. The experiment in a line: partition to human RBC, human HemA plasma, 15 min.
The target in experiment [11] is T2, Cynomolgus monkey glycophorin A on …. The experiment in a line: partition to Cyno RBC, human HemA plasma, 30 min.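 Note: FVIII fusion spiked at 1 IU/mL into RBC suspension at whole-blood density.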
For experiment [12] the target is unchanged. Kind of experiment: partition to Cyno RBC, human HemA plasma, 1 min.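 Note: FVIII fusion spiked at 1 IU/mL into RBC suspension at whole-blood density.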
Experiment [13] shares this target. Kind of experiment: partition to Cyno RBC, human HemA plasma, 60 min.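 Note: FVIII fusion spiked at 1 IU/mL into RBC suspension at whole-blood density.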
Experimental: as §1

B1: TPP-9900 FVIII-scFv fusion protein (other)
chain: DIQLTQSPSFLSASVGDRVTITCRASSSVRYIYWFQQKPGKAPKLLIYATSFRQSGVPSRFSGSGSGTEYTLTISSLQPEDFATYYCHQRNSFPYTFGQGTKLEIKGGGGSGGGGSGGGGSGGGGSEVQLVQSGAEVKKPGASVKVSCKASGYTFTTYAIHWVRQAPGQGLEWMGYINPSSGYTRYNPKFKGRVTMTRDKSTSTAYMELRSLRSDDTAVYYCWTGTRDYWGQGTTVTVSSGGGSGGGGSGLVPRGSGGGSGGGGSGATRRYYLGAVELSWDYMQSDLGELPVDARFPPRVPKSFPFNTSVVYKKTLFVEFTDHLFNIAKPRPPWMGLLGPTIQAEVYDTVVITLKNMASHPVSLHAVGVSYWKASEGAEYDDQTSQREKEDDKVFPGGSHTYVWQVLKENGPMASDPLCLTYSYLSHVDLVKDLNSGLIGALLVCREGSLAKEKTQTLHKFILLFAVFDEGKSWHSETKNSLMQDRDAASARAWPKMHTVNGYVNRSLPGLIGCHRKSVYWHVIGMGTTPEVHSIFLEGHTFLVRNHRQASLEISPITFLTAQTLLMDLGQFLLFCHISSHQHDGMEAYVKVDSCPEEPQLRMKNNEEAEDYDDDLTDSEMDVVRFDDDNSPSFIQIRSVAKKHPKTWVHYIAAEEEDWDYAPLVLAPDDRSYKSQYLNNGPQRIGRKYKKVRFMAYTDETFKTREAIQHESGILGPLLYGEVGDTLLIIFKNQASRPYNIYPHGITDVRPLYSRRLPKGVKHLKDFPILPGEIFKYKWTVTVEDGPTKSDPRCLTRYYSSFVNMERDLASGLIGPLLICYKESVDQRGNQIMSDKRNVILFSVFDENRSWYLTENIQRFLPNPAGVQLEDPEFQASNIMHSINGYVFDSLQLSVCLHEVAYWYILSIGAQTDFLSVFFSGYTFKHKMVYEDTLTLFPFSGETVFMSMENPGLWILGCHNSDFRNRGMTALLKVSSCDKNTGDYYEDSYEDISAYLLSKNNAIEPRSFSQNDENQSPRSFQKKTRHYFIAAVERLWDYGMSSSPHVLRNRAQSGSVPQFKKVVFQEFTDGSFTQPLYRGELNEHLGLLGPYIRAEVEDNIMVTFRNQASRPYSFYSSLISYEEDQRQGAEPRKNFVKPNETKTYFWKVQHHMAPTKDEFDCKAWAYFSDVDLEKDVHSGLIGPLLVCHTNTLNPAHGRQVTVQEFALFFTIFDETKSWYFTENMERNCRAPCNIQMEDPTFKENYRFHAINGYIMDTLPGLVMAQDQRIRWYLLSMGSNENIHSIHFSGHVFTVRKKEEYKMALYNLYPGVFETVEMLPSKAGIWRVECLIGEHLHAGMSTLFLVYSNKCQTPLGMASGHIRDFQITASGQYGQWAPKLARLHYSGSINAWSTKEPFSWIKVDLLAPMIIHGIKTQGARQKFSSLYISQFIIMYSLDGKKWQTYRGNSTGTLMVFFGNVDSSGIKHNIFNPPIIARYIRLHPTHYSIRSTLRMELMGCDLNSCSMPLGMESKAISDAQITASSYFTNMFATWSPSKARLHLQGRSNAWRPQVNNPKEWLQVDFQKTMKVTGVTTQGVKSLLTSMYVKEFLISSSQDGHQWTLFFQNGKVKVFQGNQDSFTPVVNSLDPPLLTRYLRIHPQSWVHQIALRMEVLGCEAQDLYGGGSGGGGSGLVPRGSGGGSGGGGSGDIQLTQSPSFLSASVGDRVTITCRASSSVRYIYWFQQKPGKAPKLLIYATSFRQSGVPSRFSGSGSGTEYTLTISSLQPEDFATYYCHQRNSFPYTFGQGTKLEIKGGGGSGGGGSGGGGSGGGGSEVQLVQSGAEVKKPGASVKVSCKASGYTFTTYAIHWVRQAPGQGLEWMGYINPSSGYTRYNPKFKGRVTMTRDKSTSTAYMELRSLRSDDTAVYYCWTGTRDYWGQGTTVTVSS
As to B1, the “percentage bound to human RBC” value in [1] came out at 71.8%; in experiment [3], 19.3%; in experiment [4], 71.8%; in [6], 66.9%; in [7], 34.4%; in experiment [8], 57.7%. The “percentage bound to human RBC” value in [10] turned out to be 52%. Moreover, the “% bound to Cyno RBC” value in [2] is 55.1%; in experiment [5] it was 38.2%; in experiment [9] it was 40.6%; in [11], 43.2%; in experiment [12], 30.9%; in [13] it was 52.9%.

B2: TPP-9424 FVIII-scFv fusion protein (other)
chain: DIQLTQSPSFLSASVGDRVTITCRASSSVRYIYWFQQKPGKAPKLLIYATSFRQSGVPSRFSGSGSGTEYTLTISSLQPEDFATYYCHQRNSFPYTFGQGTKLEIKGGGGSGGGGSGGGGSGGGGSEVQLVQSGAEVKKPGASVKVSCKASGYTFTTYAIHWVRQAPGQGLEWMGYINPSSGYTRYNPKFKGRVTMTRDKSTSTAYMELRSLRSDDTAVYYCWTGTRDYWGQGTTVTVSSGGGSGGGGSGLVPRGSGGGSGGGGSGATRRYYLGAVELSWDYMQSDLGELPVDARFPPRVPKSFPFNTSVVYKKTLFVEFTDHLFNIAKPRPPWMGLLGPTIQAEVYDTVVITLKNMASHPVSLHAVGVSYWKASEGAEYDDQTSQREKEDDKVFPGGSHTYVWQVLKENGPMASDPLCLTYSYLSHVDLVKDLNSGLIGALLVCREGSLAKEKTQTLHKFILLFAVFDEGKSWHSETKNSLMQDRDAASARAWPKMHTVNGYVNRSLPGLIGCHRKSVYWHVIGMGTTPEVHSIFLEGHTFLVRNHRQASLEISPITFLTAQTLLMDLGQFLLFCHISSHQHDGMEAYVKVDSCPEEPQLRMKNNEEAEDYDDDLTDSEMDVVRFDDDNSPSFIQIRSVAKKHPKTWVHYIAAEEEDWDYAPLVLAPDDRSYKSQYLNNGPQRIGRKYKKVRFMAYTDETFKTREAIQHESGILGPLLYGEVGDTLLIIFKNQASRPYNIYPHGITDVRPLYSRRLPKGVKHLKDFPILPGEIFKYKWTVTVEDGPTKSDPRCLTRYYSSFVNMERDLASGLIGPLLICYKESVDQRGNQIMSDKRNVILFSVFDENRSWYLTENIQRFLPNPAGVQLEDPEFQASNIMHSINGYVFDSLQLSVCLHEVAYWYILSIGAQTDFLSVFFSGYTFKHKMVYEDTLTLFPFSGETVFMSMENPGLWILGCHNSDFRNRGMTALLKVSSCDKNTGDYYEDSYEDISAYLLSKNNAIEPRSFSQNDENQSPRSFQKKTRHYFIAAVERLWDYGMSSSPHVLRNRAQSGSVPQFKKVVFQEFTDGSFTQPLYRGELNEHLGLLGPYIRAEVEDNIMVTFRNQASRPYSFYSSLISYEEDQRQGAEPRKNFVKPNETKTYFWKVQHHMAPTKDEFDCKAWAYFSDVDLEKDVHSGLIGPLLVCHTNTLNPAHGRQVTVQEFALFFTIFDETKSWYFTENMERNCRAPCNIQMEDPTFKENYRFHAINGYIMDTLPGLVMAQDQRIRWYLLSMGSNENIHSIHFSGHVFTVRKKEEYKMALYNLYPGVFETVEMLPSKAGIWRVECLIGEHLHAGMSTLFLVYSNKCQTPLGMASGHIRDFQITASGQYGQWAPKLARLHYSGSINAWSTKEPFSWIKVDLLAPMIIHGIKTQGARQKFSSLYISQFIIMYSLDGKKWQTYRGNSTGTLMVFFGNVDSSGIKHNIFNPPIIARYIRLHPTHYSIRSTLRMELMGCDLNSCSMPLGMESKAISDAQITASSYFTNMFATWSPSKARLHLQGRSNAWRPQVNNPKEWLQVDFQKTMKVTGVTTQGVKSLLTSMYVKEFLISSSQDGHQWTLFFQNGKVKVFQGNQDSFTPVVNSLDPPLLTRYLRIHPQSWVHQIALRMEVLGCEAQDLY
notes: also called PPB 7888
As to B2, the “percentage bound to human RBC” value was found to be 95.6% in experiment [1]; 76.5% in [3]; 95.6% in [4]; 95.2% in experiment [6]; 90.5% in experiment [7]; 94.5% in experiment [8]. Moreover, in experiment [10], the “percentage bound to human RBC” value came out at 94.4%. Moreover, the “% bound to Cyno RBC” value in [2] is 89.1%; in experiment [5], 83%; in [9], 87.2%; in experiment [11] it was 87.8%; in experiment [12], 62.9%; in [13] it was 89%.
